Experimental data published in US10513539B2, “Hydrophobic modified peptides and their use for liver specific targeting” (Ruprecht-Karls-Universitat Heidelberg, priority 2011, dated 2019).

Tests used:
[1] = Protocol: The peptide stearoyl-[K(DOTA[^68Ga])]3-[…] (SEQ ID NO:15)-amide was dissolved in citrate buffer (pH 8.0)+4% BSA and injected i.v. in the tail vene of tumour bearing WAG/Rij rats. The rats were orthopically injected with 1×10^6 syngenic colon carcinoma cells (CC531 cells) 10 days prior to the measurements. At the day of measurement the rats received the peptide in a concentration of 400 nmol/kg body weight. During the experiments the rats were anaesthetised by isoflurane and kept at 37° C.
[2] = system: primary mouse hepatocytes
Protocol: Next it was analyzed if the modified doxorubicin is still cytotoxic to cells. In this experiment primary mouse hepatocytes isolated from C57BL/6 mice as described in Galle et al., (1994) (37) were incubated and reseeded in 96 well flat bottom plates to form a confluent cell layer. […] The cells were then incubated for 12 h (FIG. 6A) or 24 h (FIG. 6B), respectively. After incubation an MTT assay (Cell proliferation Kit, Roche Mannheim Germany) was performed as indicated by the manufacturer's instructions to determine remaining cell viability. The results are shown in FIGS. 6A and 6B (Cell Viability Assay).

SMILES | enrichment in the liver (PET) ([1]; 400 nmol/kg i.v., WAG/Rji rat, five minutes post i.v. injection (FIG. 4A)) | specificity of staining, liver tissue vs tumor tissue (merged PET images) ([1]; tumour bearing rat (CC531 colon carcinoma), FIG. 4C) | cytotoxic effects [2] | cytotoxic activity (HepG2 cells)
CCCCCCCCCCCCCCCCCC(=O)N[C@@H](CCCCNC(=O)CN1CCN(CC(=O)O)CCN(CC(=O)O)CCN(CC(=O)O)CC1)C(=O)N[C@@H](CCCCNC(=O)CN1CCN(CC(=O)O)CCN(CC(=O)O)CCN(CC(=O)O)CC1)C(=O)N[C@@H](CCCCNC(=O)CN1CCN(CC(=O)O)CCN(CC(=O)O)CCN(CC(=O)O)CC1)C(=O)N[C@@H](CC(N)=O)C(=O)N[C@@H](CC(C)C)C(=O)N[C@@H](CO)C(=O)N[C@H](C(=O)N[C@@H](CO)C(=O)N[C@@H](CC(N)=O)C(=O)N1CCC[C@H]1C(=O)N[C@@H](CC(C)C)C(=O)NCC(=O)N[C@@H](Cc1ccccc1)C(=O)N[C@@H](Cc1ccccc1)C(=O)N1CCC[C@H]1C(=O)N[C@@H](CC(=O)O)C(=O)N[C@@H](Cc1c[nH]cn1)C(=O)N[C@@H](CCC(N)=O)C(=O)N[C@@H](CC(C)C)C(=O)N[C@@H](CC(=O)O)C(=O)N1CCC[C@H]1C(N)=O)[C@@H](C)O | Specific enrichment | staining only liver tissue but not the tumor tissue | – | –
COc1cccc2c1C(=O)c1c(O)c3c(c(O)c1C2=O)C[C@@](O)(C(=O)CO)C[C@@H]3O[C@H]1C[C@H](N)[C@H](O)[C@H](C)O1 [doxorubicin] | – | – | significant cytotoxic effects | significant cytotoxicity
